T1: EsCas13d, nuclease-dead (Eubacterium siraeum, UniProt B0MS50, R295A;H300A;R849A;H854A)
T1 sequence: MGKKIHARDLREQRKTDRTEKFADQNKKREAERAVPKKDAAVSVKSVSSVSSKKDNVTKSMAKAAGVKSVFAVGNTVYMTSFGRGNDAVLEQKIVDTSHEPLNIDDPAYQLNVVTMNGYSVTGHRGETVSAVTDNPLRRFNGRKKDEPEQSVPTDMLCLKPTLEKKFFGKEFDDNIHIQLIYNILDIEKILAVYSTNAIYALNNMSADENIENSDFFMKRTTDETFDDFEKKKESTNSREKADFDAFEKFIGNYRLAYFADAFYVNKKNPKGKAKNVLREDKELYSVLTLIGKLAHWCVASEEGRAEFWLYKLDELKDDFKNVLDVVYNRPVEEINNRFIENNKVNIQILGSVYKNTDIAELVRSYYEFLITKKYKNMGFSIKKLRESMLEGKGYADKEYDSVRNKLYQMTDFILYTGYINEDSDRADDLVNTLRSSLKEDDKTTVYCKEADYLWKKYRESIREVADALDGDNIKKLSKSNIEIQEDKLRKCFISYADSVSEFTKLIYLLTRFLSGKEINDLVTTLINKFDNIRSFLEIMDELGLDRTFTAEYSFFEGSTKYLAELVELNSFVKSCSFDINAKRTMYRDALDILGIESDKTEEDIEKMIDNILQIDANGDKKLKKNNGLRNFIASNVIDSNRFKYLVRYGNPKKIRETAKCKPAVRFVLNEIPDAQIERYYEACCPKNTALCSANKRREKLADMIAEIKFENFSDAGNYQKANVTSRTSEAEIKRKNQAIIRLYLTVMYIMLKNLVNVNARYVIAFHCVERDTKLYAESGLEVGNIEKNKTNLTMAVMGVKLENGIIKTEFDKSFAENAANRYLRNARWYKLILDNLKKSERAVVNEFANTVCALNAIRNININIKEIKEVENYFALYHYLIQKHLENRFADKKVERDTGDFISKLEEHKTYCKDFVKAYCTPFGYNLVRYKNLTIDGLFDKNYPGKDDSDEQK

B1: target 1 MT 5'PFS UGC 3'PFS UAC (mixed)
RNA 1: CACCCGUGCAAAAAUGCAGGGGUCUAAAACUGAGCGGAUAACCUCUCUAUGG
RNA 2: GGGAAUGGAUCCACAUCUACGAAUUCUGCCCAUAGAGAGGUUAUCCGCUCAUACAGAUCGGAAGAGCACACGU
B2: target 1 MT 5'PFS UCC 3'PFS CAA (mixed)
RNA 1: B1 RNA 1
RNA 2: B1 RNA 2 with G28C, U52C, C54A
B3: target 1 U3C,C6U (mixed)
RNA 1: B1 RNA 1
RNA 2: B1 RNA 2 with U27G, G28U, C29A, C46U, U49C, U52C, A53C, C54G
B4: target 1 MT 5'PFS GGG 3'PFS AGG (mixed)
RNA 1: B1 RNA 1
RNA 2: B1 RNA 2 with U27G, C29G, U52A, A53G, C54G
B5: target 1 MT 5'PFS UCC 3'PFS CAU (mixed)
RNA 1: B1 RNA 1
RNA 2: B1 RNA 2 with G28C, U52C, C54U
B6: target 1 MT 5'PFS CUU 3'PFS CGC (mixed)
RNA 1: B1 RNA 1
RNA 2: B1 RNA 2 with U27C, G28U, C29U, U52C, A53G
B7: target 1 MT 5'PFS AGA 3'PFS AGA (mixed)
RNA 1: B1 RNA 1
RNA 2: B1 RNA 2 with U27A, C29A, U52A, A53G, C54A
B8: target 1 insU 3' of 6,insA 3' of 4 (mixed)
RNA 1: B1 RNA 1
RNA 2: GGGAAUGGAUCCACAUCUACGAAUUCGUACCAUAGAGAGGUUAUCCUGCAUCACCGAGAUCGGAAGAGCACACGU
B9: target 1 MT 5'PFS GAA 3'PFS AGU (mixed)
RNA 1: B1 RNA 1
RNA 2: B1 RNA 2 with U27G, G28A, C29A, U52A, A53G, C54U
B10: target 1 MT 5'PFS AGA 3'PFS AGC (mixed)
RNA 1: B1 RNA 1
RNA 2: B1 RNA 2 with U27A, C29A, U52A, A53G
B11: target 1 MT 5'PFS GGA 3'PFS UUC (mixed)
RNA 1: B1 RNA 1
RNA 2: B1 RNA 2 with U27G, C29A, A53U
B12: target 1 MT 5'PFS GGA 3'PFS UUU (mixed)
RNA 1: B1 RNA 1
RNA 2: B1 RNA 2 with U27G, C29A, A53U, C54U
B13: target 1 MT 5'PFS CUA 3'PFS CUC (mixed)
RNA 1: B1 RNA 1
RNA 2: B1 RNA 2 with U27C, G28U, C29A, U52C, A53U
B14: target 1 MT 5'PFS GCC 3'PFS UCC (mixed)
RNA 1: B1 RNA 1
RNA 2: B1 RNA 2 with U27G, G28C, A53C
B15: target 1 MT 5'PFS CAC 3'PFS AAG (mixed)
RNA 1: B1 RNA 1
RNA 2: B1 RNA 2 with U27C, G28A, U52A, C54G
B16: target 1 MT 5'PFS CAC 3'PFS AAC (mixed)
RNA 1: B1 RNA 1
RNA 2: B1 RNA 2 with U27C, G28A, U52A
B17: target 1 MT 5'PFS ACA 3'PFS UAG (mixed)
RNA 1: B1 RNA 1
RNA 2: B1 RNA 2 with U27A, G28C, C29A, C54G
B18: target 1 MT 5'PFS GGG 3'PFS AGC (mixed)
RNA 1: B1 RNA 1
RNA 2: B1 RNA 2 with U27G, C29G, U52A, A53G
B19: target 1 MT 5'PFS UGU 3'PFS ACA (mixed)
RNA 1: B1 RNA 1
RNA 2: B1 RNA 2 with C29U, U52A, A53C, C54A
B20: target 1 MT 5'PFS GGA 3'PFS UUA (mixed)
RNA 1: B1 RNA 1
RNA 2: B1 RNA 2 with U27G, C29A, A53U, C54A
B21: target 1 MT 5'PFS UGU 3'PFS ACU (mixed)
RNA 1: B1 RNA 1
RNA 2: B1 RNA 2 with C29U, U52A, A53C, C54U
B22: target 1 MT 5'PFS UCC 3'PFS CAG (mixed)
RNA 1: B1 RNA 1
RNA 2: B1 RNA 2 with G28C, U52C, C54G
B23: target 1 MT 5'PFS AGA 3'PFS AGU (mixed)
RNA 1: B1 RNA 1
RNA 2: B1 RNA 2 with U27A, C29A, U52A, A53G, C54U
B24: target 1 MT 5'PFS GCC 3'PFS UCA (mixed)
RNA 1: B1 RNA 1
RNA 2: B1 RNA 2 with U27G, G28C, A53C, C54A
B25: target 1 MT 5'PFS UGU 3'PFS ACG (mixed)
RNA 1: B1 RNA 1
RNA 2: B1 RNA 2 with C29U, U52A, A53C, C54G
B26: target 1 MT 5'PFS GCC 3'PFS UCG (mixed)
RNA 1: B1 RNA 1
RNA 2: B1 RNA 2 with U27G, G28C, A53C, C54G
B27: target 1 MT 5'PFS UCG 3'PFS CUU (mixed)
RNA 1: B1 RNA 1
RNA 2: B1 RNA 2 with G28C, C29G, U52C, A53U, C54U
B28: target 1 MT 5'PFS ACU 3'PFS CCG (mixed)
RNA 1: B1 RNA 1
RNA 2: B1 RNA 2 with U27A, G28C, C29U, U52C, A53C, C54G
B29: target 1 MT 5'PFS GGA 3'PFS UUG (mixed)
RNA 1: B1 RNA 1
RNA 2: B1 RNA 2 with U27G, C29A, A53U, C54G
B30: target 1 MT 5'PFS GGG 3'PFS AGA (mixed)
RNA 1: B1 RNA 1
RNA 2: B1 RNA 2 with U27G, C29G, U52A, A53G, C54A
B31: target 1 MT 5'PFS UAG 3'PFS UGA (mixed)
RNA 1: B1 RNA 1
RNA 2: B1 RNA 2 with G28A, C29G, A53G, C54A
B32: target 1 G12A,A20C (mixed)
RNA 1: B1 RNA 1
RNA 2: B1 RNA 2 with U27G, G28U, C29A, A32C, G40A, U52C, A53C, C54G
B33: target 1 MT 5'PFS AUU 3'PFS AAG (mixed)
RNA 1: B1 RNA 1
RNA 2: B1 RNA 2 with U27A, G28U, C29U, U52A, C54G

Where a chain is given by its changes, count along the chain named. In names and notes the source's numbering stands.

The term Kd denotes the constant that tells how readily two partners part at equilibrium. The low end stands for a tighter complex, the high end for a looser complex.

The series has as its target T1, EsCas13d, nuclease-dead. Put plainly: crRNA (strand 1, pre-loaded); Mg2+; 40 mM Tris-HCl pH 7.5, 150 mM NaCl, 6 mM MgCl2, 1 mM DTT, 0.1% Tween-20, 0.2 mg/ml BSA; 25 C; 10 min per concentration, then washed. To be noted: tags: His6-TwinStrep-SUMO cleaved; N-terminal SNAP kept (SNAP-Surface 488); label: 3' end held by stalled T7 RNA polymerase.
With B1, binding was put at a Kd of 0.032 ± 0.0105 µM. As to B2, the dissociation constant (Kd) was about 0.018 µM. The molecule B3 yielded a Kd of 0.0144 ± 0.0019 µM.

Turning to B4, binding was characterised by a dissociation constant (Kd) of 0.0505 ± 0.0085 µM.

As for B5, the Kd amounted to 0.013 ± 0.0055 µM.

B6 came in with a Kd of 0.018 ± 0.006 µM. To B7 belongs 0.0705 ± 0.0315 µM; to B8, 0.0079 ± 0.0006 µM.

B9: the affinity, expressed as Kd, was 0.043 ± 0.0115 µM.

As to B10, the Kd was about 0.0425 µM.

The molecule B11 yielded an equilibrium dissociation constant (Kd) of 0.0134 ± 0.0025 µM. B12 came in with a dissociation constant (Kd) of 0.0135 ± 0.00415 µM. As to B13, binding was characterised by a dissociation constant (Kd) of 0.00715 ± 0.00305 µM. To B14 belongs 0.0126 ± 0.00475 µM. As to B15, binding was characterised by a dissociation constant (Kd) of 0.042 ± 0.017 µM. Molecule B16 showed a Kd of about 0.0345 µM.

In turn, B17 had a dissociation constant Kd of 0.0112 ± 0.00495 µM. The figure for B18 is 0.0205 ± 0.0045 µM.

B19 yielded a Kd of 0.071 ± 0.018 µM. To B20 belongs 0.0142 ± 0.0031 µM; to B21, 0.0345 ± 0.0135 µM; to B22, about 0.06 µM. The figure for B23 is 0.0445 ± 0.018 µM; for B24 it is 0.0275 ± 0.01 µM. To B25 belongs about 0.08 µM. B26 yielded a dissociation constant Kd of 0.0153 ± 0.003 µM. The figure for B27 is 0.0245 ± 0.0065 µM; for B28 it is about 0.115 µM; for B29 it is 0.0089 ± 0.0008 µM. The figure for B30 is 0.0239 ± 0.0031 µM; for B31 it is 0.0345 ± 0.008 µM; for B32 it is 0.042 ± 0.009 µM. B33 gave a Kd of 0.095 ± 0.04 µM.

The values above are taken from paper PMC10786891, “Massively parallel profiling of RNA-targeting CRISPR-Cas13d”.
